Here are results for 38 variants from the RNAGym collection of RNA variant scans (doi:10.7554/elife.80360).

Sequences and labels used below:
B1: Hairpin Ribozyme (parent)
chain: GUCCUCUUUCACGUGCGCGUGAAAGAGAGAAGUGAACCAGAGAAACACACGUUGUGGUAUAUUACCUGGUA

Variants of B1 are the subject of this data set. Nature of the data set: self-cleavage, relative activity (ratio to wild type); higher = more cleavage; co-transcriptional.
Take GUCCUCUUUCACGUGAGCGUGAAAGAGAGAAGUGAACCAGAGGAACACACGUUGUGGUAUAUUACCUGGUA [C16A A43G]: the self-cleavage was 0.118.

With GUCCUCUUUCACGUGAGCGUGAAAGAGAGAAGUGAACCAGAGCAACACACGUUGUGGUAUAUUACCUGGUA [C16A A43C], the self-cleavage stood at 0.116. In the case of GUCCUCUUUCACGUGAGCGUGAAAGAGAGAAGUGACCCAGAGAAACACACGUUGUGGUAUAUUACCUGGUA [C16A A36C] it was 0.399; in that of GUCCUCUUUCACGUGAGCGUGUAAGAGAGAAGUGAACCAGAGAAACACACGUUGUGGUAUAUUACCUGGUA [C16A A22U], 0.816. In the case of GUCCUCUUUCACGUGAGCGUGAAAGAGAGAAGUGAACCAAAGAAACACACGUUGUGGUAUAUUACCUGGUA [C16A G40A] it was 0.28.

Turning to GUCCUCUUUCACGUGAGCGUGAAAGAGAGAAGUGAACCACAGAAACACACGUUGUGGUAUAUUACCUGGUA [C16A G40C], the self-cleavage was determined as 0.157. GUCCUCUUUCACGUGAGCGUGAAAGAGAGAAGUGGACCAGAGAAACACACGUUGUGGUAUAUUACCUGGUA [C16A A35G]: the self-cleavage was 1.06.

Consider GUCCUCUUUCACGUUCGCGUGAAAGAGAGAAGUGAACCAGAGAAACACACGUUGUGCUAUAUUACCUGGUA [G15U G57C], for which the self-cleavage came out at 0.128. For the variant GUCCUCUUUCACGUGAGCGUGAAAGAGAGAAGUGAACCAGAGAAACACACGUUGUGGUAUAUUACCUGGUG [C16A A71G], the self-cleavage was found to be 1.04. With GUCCUCUUUCACGUGAGCGUGAAAGAGAGAAGUGAACCAGAGAAACACACGUUGUGGUAUAUUACCUGGUC [C16A A71C] the figure was 1.1. In the case of GUCCUCUUUCACGUGAGCGUGAAAGAGAGAAGUGAACCAGAGAAACACCCGUUGUGGUAUAUUACCUGGUA [C16A A49C] it was 0.0771; in that of GUCCUCUUUCACGUGAGCGUGAACGAGAGAAGUGAACCAGAGAAACACACGUUGUGGUAUAUUACCUGGUA [C16A A24C], 0.71.

As for GUCCUCUUUCACGUGAGCGUGAAGGAGAGAAGUGAACCAGAGAAACACACGUUGUGGUAUAUUACCUGGUA [C16A A24G], the self-cleavage came out at 0.763. In the case of GUCCUCUUUCACGUGACCGUGAAAGAGAGAAGUGAACCAGAGAAACACACGUUGUGGUAUAUUACCUGGUA [C16A G17C] it was 0.85; in that of GUCCUCUUUCACGUGAACGUGAAAGAGAGAAGUGAACCAGAGAAACACACGUUGUGGUAUAUUACCUGGUA [C16A G17A], 1.02; in that of GUCCUCUUUCACGUGAGCGUGAAAGAGAGAAGUGAACCAGAGAAACACACGCUGUGGUAUAUUACCUGGUA [C16A U52C], 0.841. In the case of GUCCUCUUUCACGUGAGCGUGAAAGAGAGAAGUGAACCAGAGAAACACACGAUGUGGUAUAUUACCUGGUA [C16A U52A] it was 0.982. In the case of GUCCUCUUUCACGUGAGCGUGAAAGAGAGAAGUGAACCAGAGAAACACACGUUGUGGCAUAUUACCUGGUA [C16A U58C] it was 0.937. Regarding GUCCUCUUUCACGUUCGCGUGAAAGAGAGAAGUGAACCAGAGAAACACACGUUGUAGUAUAUUACCUGGUA [G15U G56A], the self-cleavage is 0.187. On to GUCCUCUUUCACGUGAGCGUGAAAGAGAGAAGUGAACCAGAGAAACACACGUUUUGGUAUAUUACCUGGUA [C16A G54U], for which the self-cleavage is 0.595. As for GUCCUCUUUCACGUGAGCGUGAAAGAGAGAAGUGAACCAGAGAAACACACGUUCUGGUAUAUUACCUGGUA [C16A G54C], the self-cleavage was found to be 0.432.

For the variant GUCCUCUUUCACGUGAGCGUGAAAGAGAGAAGUGAACCAGAGAAACACACGUUGUCGUAUAUUACCUGGUA [C16A G56C], the self-cleavage stood at 0.212.

For the variant GUCCUCUUUCACGUGGGCGUGAAGGAGAGAAGUGAACCAGAGAAACACACGUUGUGGUAUAUUACCUGGUA [C16G A24G], the self-cleavage worked out at 0.568. In the case of GUCCUCUUUCACGUGAGCGUGAAAGAGAGAAGUGAACCAGAGAAACACACGUUGUGGUUUAUUACCUGGUA [C16A A59U] it was 0.212; in that of GUCCUCUUUCACGUUCGCGUGAAAGAGAGAAGUGAACCAGAGAAACACACGUUGUGGAAUAUUACCUGGUA [G15U U58A], 0.831. In the case of GUCCUCUUUCACGUGAGCGUGAAAGAGAGAAGUGAACCAGAGAAACAAACGUUGUGGUAUAUUACCUGGUA [C16A C48A] it was 0.123; in that of GUCCUCUUUCACGUGAGCGUAAAAGAGAGAAGUGAACCAGAGAAACACACGUUGUGGUAUAUUACCUGGUA [C16A G21A], 0.67; in that of GUCCUCUUUCACGUGAGCGUCAAAGAGAGAAGUGAACCAGAGAAACACACGUUGUGGUAUAUUACCUGGUA [C16A G21C], 0.605. Regarding GUCCUCUUUCACGUGAGCGUGAAACAGAGAAGUGAACCAGAGAAACACACGUUGUGGUAUAUUACCUGGUA [C16A G25C], the self-cleavage worked out at 0.499.

With GUCCUCUUUCACGUGAGCGUGAAAGAGAGAAGUGAACCAGAGAAACACACGUUGUGGUAAAUUACCUGGUA [C16A U60A], the self-cleavage came out at 0.767. For GUCCUCUUUCACGUGAGCGUGAAAGAGAGAAGUGAACCAGAGAAACACACGUUGUGGUACAUUACCUGGUA [C16A U60C], the self-cleavage is 0.836. In the case of GUCCUCUUUCACGUGAGCGUGAAAGAGAGAAGUGAACCAGAGAAACACACGUUGUGGUAGAUUACCUGGUA [C16A U60G] it was 0.451. In the case of GUCCUCUUUCACGUGAGCGUGAAAGAGAGAAGAGAACCAGAGAAACACACGUUGUGGUAUAUUACCUGGUA [C16A U33A] it was 0.17; in that of GUCCUCUUUCACGUGAGCGUGAAAGAGAGAAGUGAACCAGAGAAACACACGUUGUGGUAUAAUACCUGGUA [C16A U62A], 0.199; in that of GUCCUCUUUCACGUGGGCGUGGAAGAGAGAAGUGAACCAGAGAAACACACGUUGUGGUAUAUUACCUGGUA [C16G A22G], 0.828. With GUCCUCUUUCACGUGAGCGUGAAAGAGAGAAGUGAACCAGAGAAACACACGUUGUGUUAUAUUACCUGGUA [C16A G57U] the figure was 0.242.

As for GUCCUCUUUCACGUUCGCGUGAAAGAGAGAAGUGAACCAGAGAAACACACGUUGUGGUAUAUUACCGGGUA [G15U U67G], the self-cleavage was 0.364. With GUCCUCUUUCACGUGGGCGUGAAAGUGAGAAGUGAACCAGAGAAACACACGUUGUGGUAUAUUACCUGGUA [C16G A26U] the figure was 0.293.
